Columns and labels:
[1] = Fluorescence activation of DFHO by aptamers in vitro; type: biochemical
Excerpt: FIG. 2A is a schematic showing the secondary structure of Squash as predicted by mFOLD (Squash: 5′-GGCUACAAGGUGAGCCCAAUAAUACGGUUUGGGUUAGGAUAGGAAGUAGAGCCGUAAACUCUCUAAGCGGUAGUC-3′ (SEQ ID NO:1)). Squash retained the main structural elements of add A-riboswitch aptamer including a 3-way junction and predicted kissing loop interactions (residues at positions 30, 31, 56, and 57, solid gray line). An additional base pair in the kissing loop between loop L2 and L3 (residues at positions 29 and 58, dotted gray line) improved fluorescence activation. […] Shown are the excitation (Ex) and emission (Em) spectra of Squash bound to DFHBI-1T and DFHO (structures shown in inset). Spectra were measured using 20 μM RNA and 2 μM of the indicated fluorogenic dye. […] Fluorescence activation was measured by incubating 200 nM dye and 10 μM RNA. By using a large excess of RNA compared to the fluorophore, it was ensured that the fluorescence observed is from 200 nM RNA-fluorophore complex. Data represent mean values±s.d. for n=3 independent experiments. The values inside the bars indicate fold activation. AU, arbitrary units. FIG. 2D is a graph showing the dissociation constant (Kd) between Squash and DFHO as measured by titration of 50 nM Squash with increasing concentration of DFHO, and fitted using a one-site saturation model. […] FIG. 2E is a bar graph showing the results of an experiment in which Squash-DFHO fluorescence was measured in buffers containing exclusively the indicated cations. […] Similar to the parental add A-riboswitch aptamer (see Lemay et al., “Folding of the Adenine Riboswitch,” Chem. Biol. 13:857-868 (2006), which is hereby incorporated by reference in its entirety), Squash-DFHO has a low magnesium requirement for fluorescence activation. […]
FIG. 6A is a bar graph showing fluorescence activation of DFHO by Squash and its precursors. Fluorescence was measured with 200 nM dye and 10 μM RNA (ex: 495 nm, em: 562 nm, except for Corn; ex: 505 nm, em: 545 nm). […] FIG. 6B is a bar graph showing fluorescence of initial hits after Round 7 of SELEX. In vitro transcribed RNAs from each hit (1 μM final) were mixed with DFHBI-1T (10 μM final) and the fluorescence was measured (ex: 452 nm, em: 503 nm, except for Broccoli; ex: 472 nm, em: 507 nm). […] FIGS. 6C-6D are bar graphs showing fluorescence measurements of the hits with DFHBI-1T after first (FIG. 6C) and second (FIG. 6D) round of directed evolution, measured as in FIG. 6B. […] FIG. 6E is a bar graph showing fluorescence measurements of hits using DFHO after the second round of directed evolution measured as in FIG. 6A. The fluorescence of the hits were normalized against Corn. […] FIG. 6F is a graph showing normalized fluorescence. […] Fluorescence was measured as in FIG. 6A. […]

[2] = Photophysical properties of fluorophores and RNA-fluorophore complexes (Squash study); type: physicochemical
Procedure, shortened: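 Gel-purified RNAs in 40 mM HEPES-KOH pH 7.4, 100 mM KCl, 0.5 mM MgCl2, with RNA in excess over fluorophore for absorption, excitation and emission spectra. Quantum yields used 10 μM RNA and 0.2 μM fluorophore, from integrated emission versus Broccoli-DFHBI-1T or Corn-DFHO.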

B1: Squash: fluorogenic RNA aptamer evolved from the add A-riboswitch aptamer, binds DFHBI-1T and DFHO; SEQ ID NO: 12 (SEQ ID NO: 1) (nucleic acid)
chain: AGGUGAGCCCAAUAAUACGGUUUGGGUUAGGAUAGGAAGUAGAGCCGUAAACUCUCUAAGCG
modifications: RNA, backbone not given here
[1]
  Fold activation of DFHO fluorescence: 550 fold
[1]; 200 nM dye and 10 μM RNA
  Activation of DFHO compared to Corn: > 2 fold
[1]; 10 μM RNA, 1 μM DFHO
  Fluorescence intensity with DFHO compared to Corn: more than two-fold higher
[2]
  Quantum yield with DFHBI-1T: 0.71
  Quantum yield with DFHO: 0.60
[2]; 10 μM RNA, 1 μM DFHO
  Emission maxima with DFHO: 562 nm
[2]; 50 μM RNA, 5 μM DFHBI-1T
  Abs max in complex with DFHBI-1T: 450 nm

— US20250043290A1, “RNA SEQUENCES THAT INDUCE FLUORESCENCE OF SMALL MOLECULE FLUOROPHORES, MOLECULAR COMPLEXES, SENSORS, AND METHODS OF USE THEREOF” (CORNELL UNIVERSITY, priority 2021, published 2025)
